The target of test [1] is yeast-displayed human LIF (hLIF, Ser23 to Phe203) (human) (UniProt P15018). Description: not stated; Supplementary Fig. 7b, not shown; told only in the discussion.
Test [2] has as its target yeast-displayed eLIFR CBM I–Ig-like domains ('VPRVVAID') (human). Description: flow cytometry on cells; LIFR constructs displayed on yeast (EBY100), soluble tagged cytokine (LIF-His and others) in PBS with 1 mg/ml BSA, detected by antibody to the tag; gated on c-myc-positive yeast; apparent affinity by non-linear regression.
Test [3] concerns the target yeast-displayed mouse LIFR (mouse) (UniProt P42703). Description: flow cytometry on cells; receptor displayed on yeast, soluble cytokine titrated in PBS with 1 mg/ml BSA; bound cytokine detected by fluorescent antibodies; apparent Kd by non-linear regression.
For test [4], the target named is recombinant human LIF, histidine-tagged (hLIF-His) (UniProt P15018). Description: flow cytometry of yeast-displayed LIFR variants. The settings on record: read off a plot.

mLIFR-Fc (mouse LIFR CBM I–Ig-like–CBM II fused to an antibody Fc domain), sequence (P42703 44-529): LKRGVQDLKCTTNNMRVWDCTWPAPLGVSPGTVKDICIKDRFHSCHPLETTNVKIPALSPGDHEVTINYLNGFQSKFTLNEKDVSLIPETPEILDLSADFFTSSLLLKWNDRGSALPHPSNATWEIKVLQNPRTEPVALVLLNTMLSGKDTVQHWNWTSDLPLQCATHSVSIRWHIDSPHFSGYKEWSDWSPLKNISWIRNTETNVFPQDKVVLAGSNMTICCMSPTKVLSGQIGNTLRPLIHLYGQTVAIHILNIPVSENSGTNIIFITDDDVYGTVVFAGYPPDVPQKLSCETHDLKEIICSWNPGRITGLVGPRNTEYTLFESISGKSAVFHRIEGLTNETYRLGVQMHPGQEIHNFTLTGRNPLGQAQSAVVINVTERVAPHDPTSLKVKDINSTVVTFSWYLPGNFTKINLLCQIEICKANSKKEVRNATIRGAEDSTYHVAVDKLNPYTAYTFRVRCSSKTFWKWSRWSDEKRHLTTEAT
yeast-displayed mouse LIFR (mouse), sequence (P42703 44-1092): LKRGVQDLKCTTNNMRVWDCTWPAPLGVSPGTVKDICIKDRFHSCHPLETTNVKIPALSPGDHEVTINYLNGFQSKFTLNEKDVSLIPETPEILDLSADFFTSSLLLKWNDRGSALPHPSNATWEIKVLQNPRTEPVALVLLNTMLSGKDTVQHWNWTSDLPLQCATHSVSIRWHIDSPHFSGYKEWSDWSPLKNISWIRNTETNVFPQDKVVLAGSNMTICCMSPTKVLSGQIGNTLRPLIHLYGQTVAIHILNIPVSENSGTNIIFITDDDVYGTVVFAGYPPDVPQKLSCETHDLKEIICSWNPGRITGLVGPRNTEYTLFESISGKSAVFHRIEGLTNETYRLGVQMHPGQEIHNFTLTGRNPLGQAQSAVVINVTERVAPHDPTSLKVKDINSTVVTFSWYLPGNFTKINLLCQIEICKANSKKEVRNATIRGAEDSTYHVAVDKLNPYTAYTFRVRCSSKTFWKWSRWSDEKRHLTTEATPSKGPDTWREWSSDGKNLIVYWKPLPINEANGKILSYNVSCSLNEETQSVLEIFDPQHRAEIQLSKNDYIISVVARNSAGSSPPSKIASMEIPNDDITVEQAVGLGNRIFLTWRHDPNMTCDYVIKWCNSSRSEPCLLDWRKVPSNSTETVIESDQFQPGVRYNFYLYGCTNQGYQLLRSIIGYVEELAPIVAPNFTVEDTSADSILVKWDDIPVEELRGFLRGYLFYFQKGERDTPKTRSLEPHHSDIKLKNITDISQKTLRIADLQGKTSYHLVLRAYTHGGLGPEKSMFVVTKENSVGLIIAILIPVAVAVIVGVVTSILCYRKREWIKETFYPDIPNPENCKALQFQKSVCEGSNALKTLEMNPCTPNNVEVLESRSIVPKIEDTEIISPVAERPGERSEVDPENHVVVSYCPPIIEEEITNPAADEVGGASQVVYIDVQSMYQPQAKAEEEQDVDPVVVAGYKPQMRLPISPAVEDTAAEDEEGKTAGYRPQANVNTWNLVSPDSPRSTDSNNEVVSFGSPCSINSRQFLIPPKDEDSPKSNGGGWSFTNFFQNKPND
yeast-displayed wild-type human LIFR CBM I–Ig-like domains (Gln45 to Gln337), sequence (P42702 45-337, stated change not applied): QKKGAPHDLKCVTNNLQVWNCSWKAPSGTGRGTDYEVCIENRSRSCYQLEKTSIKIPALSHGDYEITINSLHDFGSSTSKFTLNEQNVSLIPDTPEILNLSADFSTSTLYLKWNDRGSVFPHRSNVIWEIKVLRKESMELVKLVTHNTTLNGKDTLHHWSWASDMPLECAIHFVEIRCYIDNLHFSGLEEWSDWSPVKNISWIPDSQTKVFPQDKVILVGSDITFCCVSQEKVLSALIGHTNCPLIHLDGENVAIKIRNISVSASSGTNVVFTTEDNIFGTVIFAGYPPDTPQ

Substance “mLIFR-Fc (mouse LIFR CBM I–Ig-like–CBM II fused to an antibody Fc domain) (from UniProt P42703 44-529) (Fc fusion)” gave a Kd in test [1] of 1 pM.
With “recombinant human LIF, histidine-tagged (hLIF-His) (from UniProt P15018 23-202) (ligand)”, the Kd in test [2] was 40 pM.
Turning to “recombinant human LIF-His (from UniProt P15018 23-202) (ligand)”, the Kd in test [3] was found to be 1.1 pM.
For “yeast-displayed wild-type human LIFR CBM I–Ig-like domains (Gln45 to Gln337) (from UniProt P42702) PRDSAID”, in test [4], the ratio to parent was determined as 5.2.

These data come from PMC8041770.
